Measured values: patent US20250074980A1 (BRIGHAM AND WOMEN S HOSPITAL, published 2025)

T1: CEACAM6 (recombinant protein) (human, UniProt P40199 35-320)
T1 construct: construct not described
T1 sequence (looked up): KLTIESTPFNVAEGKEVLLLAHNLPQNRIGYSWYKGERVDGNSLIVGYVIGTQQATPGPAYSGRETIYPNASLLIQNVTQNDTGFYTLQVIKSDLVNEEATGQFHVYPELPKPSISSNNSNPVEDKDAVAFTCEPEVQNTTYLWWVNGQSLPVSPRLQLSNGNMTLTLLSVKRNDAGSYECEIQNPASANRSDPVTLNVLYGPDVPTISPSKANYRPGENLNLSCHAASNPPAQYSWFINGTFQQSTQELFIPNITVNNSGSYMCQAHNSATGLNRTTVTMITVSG

T2: CEACAM6 on transfected HeLa cells (human, UniProt P40199 35-320)
T2 construct: whole, on cells; also called HeLa-CEACAM6; HeLa C6
T2 sequence (looked up): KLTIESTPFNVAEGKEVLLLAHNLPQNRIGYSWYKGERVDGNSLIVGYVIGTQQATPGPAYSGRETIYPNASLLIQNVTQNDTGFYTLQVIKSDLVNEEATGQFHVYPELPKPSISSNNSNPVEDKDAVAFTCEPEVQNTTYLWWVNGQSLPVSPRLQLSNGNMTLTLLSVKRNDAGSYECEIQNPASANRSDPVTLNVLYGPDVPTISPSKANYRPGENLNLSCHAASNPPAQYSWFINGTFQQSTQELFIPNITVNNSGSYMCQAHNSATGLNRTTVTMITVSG

T3: His-tagged CEACAM1 (human, UniProt P13688 35-428)
T3 construct: 45 kDa SPR analyte; also called CEACAM1-HIS; CEACAM1 analyte
T3 sequence: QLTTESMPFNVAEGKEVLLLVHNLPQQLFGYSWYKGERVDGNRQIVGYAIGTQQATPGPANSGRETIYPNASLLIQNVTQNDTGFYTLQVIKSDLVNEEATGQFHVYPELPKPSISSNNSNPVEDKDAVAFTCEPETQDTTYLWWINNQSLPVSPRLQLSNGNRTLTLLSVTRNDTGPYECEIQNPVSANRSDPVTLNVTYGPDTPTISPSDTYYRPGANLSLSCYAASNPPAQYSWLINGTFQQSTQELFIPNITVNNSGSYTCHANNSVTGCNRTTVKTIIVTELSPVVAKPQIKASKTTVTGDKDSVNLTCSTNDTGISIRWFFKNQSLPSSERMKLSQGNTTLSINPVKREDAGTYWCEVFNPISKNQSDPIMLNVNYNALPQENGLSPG

T4: CEACAM5 on transfected HeLa cells (human, UniProt P06731 35-685)
T4 construct: whole, on cells; also called HeLa-CEACAM5; HeLa C5
T4 sequence (looked up): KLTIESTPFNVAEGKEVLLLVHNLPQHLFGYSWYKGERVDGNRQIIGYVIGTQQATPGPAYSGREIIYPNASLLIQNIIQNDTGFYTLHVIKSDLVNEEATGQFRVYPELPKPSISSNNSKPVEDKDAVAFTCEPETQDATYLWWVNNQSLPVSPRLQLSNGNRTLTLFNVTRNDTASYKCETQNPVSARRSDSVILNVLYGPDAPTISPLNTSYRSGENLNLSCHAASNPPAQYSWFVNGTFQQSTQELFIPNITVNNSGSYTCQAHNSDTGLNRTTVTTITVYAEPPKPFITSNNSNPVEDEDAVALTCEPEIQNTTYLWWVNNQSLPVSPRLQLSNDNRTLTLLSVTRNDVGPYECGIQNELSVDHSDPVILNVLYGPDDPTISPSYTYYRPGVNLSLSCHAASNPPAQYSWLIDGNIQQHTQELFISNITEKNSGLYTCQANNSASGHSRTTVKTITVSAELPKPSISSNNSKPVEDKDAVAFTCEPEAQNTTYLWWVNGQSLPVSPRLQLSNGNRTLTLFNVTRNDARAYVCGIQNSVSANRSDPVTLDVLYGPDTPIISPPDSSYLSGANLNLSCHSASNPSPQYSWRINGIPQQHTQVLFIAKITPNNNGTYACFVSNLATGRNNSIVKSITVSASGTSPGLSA


Key:
[1] = target: T1, CEACAM6 (recombinant protein); assay: SPR single-cycle kinetics, antibody captured on Protein A, CEACAM-6 injected at three rising concentrations [Cont.]
Description: In order to assess the binding of the humanized, affinity matured reformatted lead IgGs, single-cycle kinetics analysis was performed on crude supernatants using a Biacore T200 running Biacore T200 Control Software V2.0.1 and Biacore T200 Evaluation Software V3.0. Antibodies were diluted in HBS-P+ to a final concentration of 0.5 μg/ml. At the start of each cycle, antibodies were loaded onto Fc2, Fc3 and Fc4 of the Protein A chip. IgGs were captured at a flow rate of 10 μl/min to give an immobilisation level (RL) of ˜100 RU (a level calculated to obtain a Rₘₐₓ of ˜50-150 RU once the analyte is bound). The surface was then allowed to stabilize. Single-cycle kinetics data was obtained with CEACAM1 as the analyte at a flow rate of 80 μl/min to minimize any potential mass transfer effects. Multiple repeats with the parent (VH1/Vκ8 S29A) antibody were performed to check the stability of the surface and analyte over the kinetic cycles. The signal from the reference channel Fc1 (no antibody) was subtracted from that of Fc2, Fc3 and Fc4 to correct for differences in non-specific binding to the reference surface. A three point, two-fold dilution range from 70 nM to 280 nM CEACAM1 without regeneration between each concentration was used. The signal from each antibody blank run (no CEACAM1) was subtracted to correct for differences in surface stability. The association phase for the three injections of increasing concentrations of CEACAM1 was monitored for 80 seconds each time and a single dissociation phase was measured for 150 seconds following the last injection of CEACAM1. Regeneration of the Protein A surface was conducted using two injections of 10 mM glycine-HCL pH 1.5 followed by a stabilization period of 250 seconds.
To further assess the binding selectivity of CEACAM1 antibodies VH0/Vκ0, CP08H03/Vκ8 S29A, CP08H03/CP08F05 CEACAM1 over other proteins, binding affinities to CEACAM1, CEACAM3, CEACAM5, and CEACAM6 were compared using single-cycle kinetics analysis performed as described above. Single cycle kinetics was conducted using CEACAM concentrations from 280 nM to 70 nM.

[2] = target: T2, CEACAM6 on transfected HeLa cells; assay: flow cytometry, HeLa-CEACAM6 transfectants, % staining, stacked bars
From the text: (§1) FIG. 11 illustrates the binding selectivity of different affinity-matured CEACAM1 antibodies. […] HELA cells were transfected with vector alone (HeLa-Neo) or vectors expressing CEACAM1, CEACAM3, CEACAM5, or CEACAM6, respectively, and stained with the indicated antibodies. […] MOPC=mouse IgG1 control antibody. Mouse antibodies as positive control for transfected CEACAM isoforms: Col-1=CEACAM3 and CEACAM5 antibody. 9A6=CEACAM6 antibody. T84.1=CEACAM cross-reactive antibody and T84.66=CEACAM5 antibody. Only 2nd FITC=No primary antibody, only secondary FITC conjugated antibody. […] Data for affinity-matured antibodies 9B3_8H3/Vκ8 S29A, 8H3_9B3/CP08_E05, and 8H3_9C2/CPO08_F05, as well as data for CEACAM8 antibody 80H3 were omitted from the FIG. due to an unusually high background signal.

His-tagged CEACAM1 = target: T3, His-tagged CEACAM1; assay: SPR single-cycle, supernatant IgG captured
Procedure, shortened: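 Humanized, affinity-matured IgGs from crude supernatant (0.5 μg/ml in HBS-P+) captured on Protein A to ~100 RU. Single-cycle kinetics: CEACAM1 at three concentrations, 70–280 nM two-fold, 80 μl/min, 80 s association each, 150 s dissociation. Reference-channel and blank-run subtraction applied.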

[3] = target: T4, CEACAM5 on transfected HeLa cells; assay: flow cytometry, HeLa-CEACAM5 transfectants, % staining, stacked bars
From the text: as §1

| Binder | binding result [1] | binding result [2] | Kd (His-tagged CEACAM1) | koff (His-tagged CEACAM1) | kon (His-tagged CEACAM1) | relative KD to parent (His-tagged CEACAM1) | binding result [3] |
| --- | --- | --- | --- | --- | --- | --- | --- |
| VH1/Vκ8 S29A (antibody, IgG4, V domains shown, IgG4 (S241P), kappa; also called Parent; Parent (VH1/Vκ8 S29A)) VH: EVQLLESGGGLVQPGGSLRLSCAASGFIFSSHGMSWVRQAPGKGLEWVATISSGGTYTYYPDSVKGRFTISRDNSKNTLYLQMNSLKAEDTAMYYCARHDFDYDAAWFAYWGQGTLVTVSS VL: EIVLTQSPATLSLSPGERATLSCRANSAVSYMYWYQQKPGQAPRPWIYLTSNRATGVPARFSGSGSGTDYTLTISSLEPEDFAVYYCQQWSSNPPTFGQGTKLEIK | – | no binding | 590 nM | 0.057 s⁻¹ | 95000 M⁻¹ s⁻¹ | 1 | no binding |
| CP08H03/Vκ8 S29A (antibody, IgG4, V domains shown, IgG4 (S241P), kappa; also called CP08_H03/Parent VL; CP08_H03/Parental) VH: EVQLLESGGGLVQPGGSLRLSCAASGFIFSSHGMSWVRQAPGKGLEWVATISSGGTYTYYPDSVKGRFTISRDNSKNTLYLQMNSLKAEDTAMYYCARHDFDYFPYWFAHWGQGTLVTVSS VL: EIVLTQSPATLSLSPGERATLSCRANSAVSYMYWYQQKPGQAPRPWIYLTSNRATGVPARFSGSGSGTDYTLTISSLEPEDFAVYYCQQWSSNPPTFGQGTKLEIK | no binding | – | 45 nM | 0.0076 s⁻¹ | 180000 M⁻¹ s⁻¹ | 13.7 | – |

The next lines start with the values.

| binding result [1] | binding result [2] | Kd (His-tagged CEACAM1) | koff (His-tagged CEACAM1) | kon (His-tagged CEACAM1) | relative KD to parent (His-tagged CEACAM1) | binding result [3] | Binder |
| --- | --- | --- | --- | --- | --- | --- | --- |
| no binding | – | – | – | – | – | – | chimeric antibody VH0/Vκ0 (antibody, IgG4, V domains shown, IgG4 (S241P), kappa; also called VH0/Vκ0 (control); Chimeric VH0/Vκ0) VH: EVQLVESGGDLVKPGGSLKLACAASGFIFSSHGMSWVRQTPDKRLEWVATISSGGTYTYYPDSVKGRFTISRDNDKNTLYLQMNSLKSEDTAMYYCARHDFDYDAAWFAYWGQGTLVTVSS VL: QIVLTQSPALMSASPGVKVTMTCSANSSVSYMYWYRQKPRSSPKPWIYLTSNLASGVPARFSGSGSGTSYSLTISSMEAEDAATYYCQQWSSNPPTFGSGTKLEIK |
| no binding | no binding | – | – | – | – | no binding | CP08H03/CP08F05 (antibody, V domains shown, IgG4 (S241P), kappa) VH: EVQLLESGGGLVQPGGSLRLSCAASGFIFSSHGMSWVRQAPGKGLEWVATISSGGTYTYYPDSVKGRFTISRDNSKNTLYLQMNSLKAEDTAMYYCARHDFDYFPYWFAHWGQGTLVTVSS VL: EIVLTQSPATLSLSPGERATLSCRANSAVSYMYWYQQKPGQAPRPWIYLTSNRATGVPARFSGSGSGTDYTLTISSLEPEDFAVYYCQQWTSNPPTFGQGTKLEIK |
